Laboratory results published in the Immune Epitope Database (IEDB).

Tests used:
Assay in all cases: IEDB peptide-MHC binding, purified MHC/competitive/radioactivity; filed as Kd, often an IC50 or EC50 that approximates it; ≥ and ≤ were set here for values at or beyond the usual limits of such assays
Conditions in all cases: source organism: Plasmodium falciparum 3D7
HLA-A*02:06 = target: HLA-A*02:06
HLA-A*02:01 = target: HLA-A*02:01
HLA-A*02:03 = target: HLA-A*02:03
HLA-A*68:02 = target: HLA-A*68:02
HLA-A*02:02 = target: HLA-A*02:02
HLA-A*29:02 = target: HLA-A*29:02
HLA-A*23:01 = target: HLA-A*23:01
HLA-A*24:02 = target: HLA-A*24:02
HLA-A*30:02 = target: HLA-A*30:02

| Sequence | Kd (HLA-A*02:06) [nM] | Kd (HLA-A*02:01) [nM] | Kd (HLA-A*02:03) [nM] | Kd (HLA-A*68:02) [nM] | Kd (HLA-A*02:02) [nM] | Kd (HLA-A*29:02) [nM] | Kd (HLA-A*23:01) [nM] | Kd (HLA-A*24:02) [nM] | Kd (HLA-A*30:02) [nM] |
| --- | --- | --- | --- | --- | --- | --- | --- | --- | --- |
| ATYGIIVPV | 5 | 3.2 | 2.8 | 21 | 2 | – | – | – | – |
| FLVFLVFSNV | 232 | 269 | – | 5390 | 212 | – | – | – | – |
| FMNRFYITT | 996 | – | – | 6540 | 18 | – | – | – | – |
| LLNESNIFL | 143 | 43 | 24 | 4480 | 2.5 | – | – | – | – |
| LYYLFNQHI | – | – | – | – | – | ≥ 10000 | 1.4 | 33 | ≥ 10000 |
| MFVPKYFEL | – | – | – | – | – | 2560 | 11 | 266 | 8560 |
| NFINFIKVL | – | – | – | – | – | ≥ 10000 | 1040 | ≥ 10000 | ≥ 10000 |
| NILIVLYYL | 1090 | ≥ 10000 | 8780 | ≥ 10000 | 1610 | – | – | – | – |
| NQMIFVSSI | 14 | 250 | 3.6 | 198 | 21 | – | – | – | – |
| RLFEESLGI | 68 | – | 5.5 | 418 | 1.9 | – | – | – | – |
| RLPVICSFLV | 19 | – | 33 | 9180 | 2.5 | – | – | – | – |
| SFFMNRFYI | – | – | – | – | – | 200 | 11 | 172 | 1020 |
| SYKSSKRDKF | – | – | – | – | – | ≥ 10000 | 797 | 256 | 88 |
| TYGIIVPVL | – | – | – | – | – | ≥ 10000 | 41 | 248 | 1520 |
| VICSFLVFLV | 197 | – | 2920 | 1950 | 415 | – | – | – | – |
| VLFLQMMNV | 9.5 | 31 | 2.7 | 323 | 1.8 | – | – | – | – |
| VYRHCEYIL | – | – | – | – | – | ≥ 10000 | 64 | 2200 | 3330 |
| VYYNILIVL | – | – | – | – | – | ≥ 10000 | 52 | 265 | 1130 |
| YQDPQNYEL | 52 | 79 | 441 | ≥ 10000 | 18 | – | – | – | – |
